Laboratory results: US9012166B2, “Method for assaying histone methylation enzyme activity” (Kyushu Institute of Technology, priority 2010, dated 2015)
*: point of attachment. AMC = Cc1cc(=O)oc2cc(N*)ccc12

Target: T1, G9a (GST-mG9a) (Mus musculus, UniProt Q9Z148)
T1 sequence (Q9Z148 1-1263): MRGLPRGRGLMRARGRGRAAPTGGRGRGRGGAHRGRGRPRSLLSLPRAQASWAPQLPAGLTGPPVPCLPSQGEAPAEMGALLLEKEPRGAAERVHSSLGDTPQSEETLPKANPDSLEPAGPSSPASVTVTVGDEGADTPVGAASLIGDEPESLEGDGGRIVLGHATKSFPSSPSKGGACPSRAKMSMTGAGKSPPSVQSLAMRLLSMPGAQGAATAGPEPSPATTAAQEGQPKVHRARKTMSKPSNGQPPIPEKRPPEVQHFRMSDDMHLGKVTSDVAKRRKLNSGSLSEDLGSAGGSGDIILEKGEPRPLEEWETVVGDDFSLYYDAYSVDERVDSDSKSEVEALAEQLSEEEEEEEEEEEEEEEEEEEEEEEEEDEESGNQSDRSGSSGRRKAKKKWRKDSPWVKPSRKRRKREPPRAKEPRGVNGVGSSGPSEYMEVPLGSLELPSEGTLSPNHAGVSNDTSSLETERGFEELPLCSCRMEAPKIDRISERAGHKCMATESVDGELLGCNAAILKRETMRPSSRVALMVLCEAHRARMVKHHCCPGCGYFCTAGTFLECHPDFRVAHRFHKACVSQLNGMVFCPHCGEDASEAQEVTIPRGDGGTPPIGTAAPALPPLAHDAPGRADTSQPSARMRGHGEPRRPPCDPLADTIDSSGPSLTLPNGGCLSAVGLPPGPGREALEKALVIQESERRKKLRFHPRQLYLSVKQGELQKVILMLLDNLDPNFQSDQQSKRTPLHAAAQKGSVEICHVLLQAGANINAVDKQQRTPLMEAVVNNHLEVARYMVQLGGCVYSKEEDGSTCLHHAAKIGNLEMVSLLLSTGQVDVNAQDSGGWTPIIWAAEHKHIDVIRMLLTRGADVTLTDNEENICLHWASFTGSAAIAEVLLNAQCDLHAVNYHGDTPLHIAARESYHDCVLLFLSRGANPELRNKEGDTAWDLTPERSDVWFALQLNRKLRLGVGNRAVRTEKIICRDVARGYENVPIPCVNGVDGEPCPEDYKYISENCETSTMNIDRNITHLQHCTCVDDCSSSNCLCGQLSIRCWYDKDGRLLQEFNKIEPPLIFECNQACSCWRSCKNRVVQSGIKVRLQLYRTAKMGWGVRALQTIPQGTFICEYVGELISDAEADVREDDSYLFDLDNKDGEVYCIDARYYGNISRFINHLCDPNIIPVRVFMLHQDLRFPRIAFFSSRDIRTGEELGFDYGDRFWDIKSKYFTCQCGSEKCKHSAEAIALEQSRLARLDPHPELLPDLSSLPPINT
Test: Substrate specificity / methylation of substrate compounds by G9a
Format: biochemical
Details: for methylation of peptidyl MCA by G9a: Example 6, GST-mG9a 0-0.15 μg/μL, left panel of FIG. 14; for methylation of peptidyl MCA by GST-mG9a: Example 13, AMC and peptidyl MCA fluorescence, FIGS. 25 and 26
Protocol: Distilled water was added to 10 μL of 2×HMT buffer (100 mM Tris-HCl (pH 8.5), 20 mM MgCl2, 40 mM KCl, 20 mM 2-mercaptoethanol, 500 mM sucrose), 2 μL of a BSA solution (30 μg/mL), and a predetermined concentration (final concentration: 0, 0.015, 0.05, or 0.15 μg/μL) of a histone methyltransferase (G9a) solution to adjust the total volume to 16 μL. Thereafter, the resultant solution was incubated at room temperature for 1 hour. Then, 2 μL of S-adenosylmethionine (SAM) (10 mM) and 2 μL of BocLysMCA (final concentration: 0.009 mM, 0.03 mM, or 0.09 mM) were added thereto, which was mixed and then incubated at 37° C. for 1 hour. Subsequently, 30 μL of a trypsin solution (20 mg/mL) was added thereto, followed by incubation at 37° C. for 15 minutes. The fluorescence intensity of the solution was measured at an excitation wavelength (λex) of 390 nm and a fluorescence wavelength (λem) of 460 nm.
When G9a was adopted as a histone methyltransferase, the following method was used. 10 μL of 2×HMT buffer (100 mM Tris-HCl (pH 8.5), 20 mM MgCl2, 40 mM KCl, 20 mM 2-mercaptoethanol, 500 mM sucrose), 0.4 μL of a BSA solution (150 μg/mL), 4.5 μL of GST-mG9a (0, 0.022 to 0.66 μg/μL), and 1.1 μL of distilled water were mixed and then incubated at room temperature for 1 hour. Then, 2 μL of SAM (10 mM) and 2 μL of a peptidyl MCA solution (0.6 mM) were added thereto, which was then incubated at 37° C. for 1 hour. Thereafter, 30 μL of a trypsin solution (20 mg/mL) was added thereto, followed by incubation at 37° C. for 15 minutes. Then, the fluorescence intensity of the solution was measured at an excitation wavelength (λex) of 390 nm and a fluorescence wavelength (λem) of 460 nm. The final concentration of GST-mG9a during the measurement of fluorescence intensity was 0, 0.005, 0.015, 0.05, or 0.15 μg/μL. The results of the assay for measuring histone methyltransferase activity are shown in the left panel of FIG. 14.
When G9a was adopted as a histone methyltransferase, the following method was used. 10 μL of 2×HMT buffer (100 mM Tris-HCl (pH 8.5), 20 mM MgCl2, 40 mM KCl, 20 mM 2-mercaptoethanol, 500 mM sucrose), 0.4 μL of a BSA solution (150 μg/mL), 3.6 μL of GST-mG9a (0, 0.028, 0.083, 0.28, 0.83 μg/μL), and 4 μL of distilled water were mixed and then incubated at room temperature for 1 hour. Then, 1 μL of SAM (20 mM) and 1 μL of a peptidyl MCA solution (1.2 mM) were added thereto, which was then incubated at 37° C. for 1 hour. Thereafter, 30 μL of a trypsin solution (20 mg/mL) was added thereto, followed by incubation at 37° C. for 15 minutes. Then, the fluorescence intensity of the solution was measured at an excitation wavelength (λex) of 390 nm and a fluorescence wavelength (λem) of 460 nm. The final concentration of GST-mG9a during the measurement of fluorescence intensity was 0, 0.005, 0.015, 0.05, or 0.15 μg/μL. The results of the assay for measuring histone methyltransferase activity are shown in the left panel of FIG. 16.
When G9a was adopted as a histone methyltransferase, the following method was used. 10 μL of 2×HMT buffer (100 mM Tris-HCl (pH 8.5), 20 mM MgCl2, 40 mM KCl, 20 mM 2-mercaptoethanol, 500 mM sucrose), 0.4 μL of a BSA solution (150 μg/mL), 4 μL of GST-mG9a (0, 0.025 to 0.75 μg/μL), and 3.6 μL of distilled water were mixed and then incubated at room temperature for 1 hour. Then, 1 μL of SAM (final concentration: 1 mM) and 1 μL, of a peptidyl MCA solution (1.2 mM) were added thereto, which was then incubated at 37° C. for 1 hour. Thereafter, 30 μL of a trypsin solution (20 mg/mL) was added thereto, followed by incubation at 37° C. for 15 minutes. Then, the fluorescence intensity of the solution was measured at an excitation wavelength (λex) of 330 nm and a fluorescence wavelength (λem) of 380 nm or at an excitation wavelength (λex) of 390 nm and a fluorescence wavelength (λem) of 460 nm. The final concentration of GST-mG9a during the measurement of fluorescence intensity was 0, 0.005, 0.015, 0.05, or 0.15 μg/μL.

Compound	fluorescence intensity of AMC after G9a reaction and trypsin (Example 4, BocLysMCA 0.009 mM to 0.09 mM, G9a 0-0.15 μg/μL, FIG. 9)	methylation of peptidyl MCA by G9a	methylation of peptidyl MCA by GST-mG9a
Cc1cc(=O)oc2cc(NC(=O)C(CCCCN)NC(=O)OC(C)(C)C)ccc12 (stereo not shown) [BocLysMCA, Boc-K-MCA]	decreased in a manner dependent on the concentration of the histone methyltransferase G9a	–	–
Ac-ARK-MCA (Ac-Ala-Arg-Lys-{AMC}; SMILES CC(=O)N[C@@H](C)C(=O)N[C@@H](CCCNC(=N)N)C(=O)N[C@@H](CCCCN)C(=O)Nc1ccc2c(C)cc(=O)oc2c1; listed as Homo sapiens) [Ac-histone H3 (7-9/25-27)-MCA, acetyl-ARK (human histone H3 7-9 or 25-27)-MCA substrate]	–	methylation often occurred	–
Ac-ARTK-MCA (Ac-ARTK-{AMC}; SMILES CC(=O)N[C@@H](C)C(=O)N[C@@H](CCCNC(=N)N)C(=O)N[C@H](C(=O)N[C@@H](CCCCN)C(=O)Nc1ccc2c(C)cc(=O)oc2c1)[C@@H](C)O; listed as Homo sapiens) [Ac-histone H3 (1-4)-MCA]	–	little methylation occurred	–
Ac-ARTKQTARK-MCA [Ac-histone H3 (1-9)-MCA]	–	methylation often occurred	methylates
Ac-KAARK-MCA (Ac-KAARK-{AMC}; SMILES CC(=O)N[C@@H](CCCCN)C(=O)N[C@@H](C)C(=O)N[C@@H](C)C(=O)N[C@@H](CCCNC(=N)N)C(=O)N[C@@H](CCCCN)C(=O)Nc1ccc2c(C)cc(=O)oc2c1; listed as Homo sapiens) [Ac-histone H3 (23-27)-MCA]	–	methylation often occurred	–
Ac-KRSK-MCA (Ac-KRSK-{AMC}; SMILES CC(=O)N[C@@H](CCCCN)C(=O)N[C@@H](CCCNC(=N)N)C(=O)N[C@@H](CO)C(=O)N[C@@H](CCCCN)C(=O)Nc1ccc2c(C)cc(=O)oc2c1; listed as Homo sapiens) [Ac-ERα (299-302)-MCA]	–	–	does not methylate
Ac-LKSK-MCA (Ac-LKSK-{AMC}; SMILES CC(=O)N[C@@H](CC(C)C)C(=O)N[C@@H](CCCCN)C(=O)N[C@@H](CO)C(=O)N[C@@H](CCCCN)C(=O)Nc1ccc2c(C)cc(=O)oc2c1; listed as Homo sapiens) [Ac-p53 (369-372)-MCA]	–	little methylation occurred	–
Ac-QLATKAARK-MCA (Ac-QLATKAARK-{AMC}; SMILES CC(=O)N[C@@H](CCC(N)=O)C(=O)N[C@@H](CC(C)C)C(=O)N[C@@H](C)C(=O)N[C@H](C(=O)N[C@@H](CCCCN)C(=O)N[C@@H](C)C(=O)N[C@@H](C)C(=O)N[C@@H](CCCNC(=N)N)C(=O)N[C@@H](CCCCN)C(=O)Nc1ccc2c(C)cc(=O)oc2c1)[C@@H](C)O; listed as Homo sapiens) [Ac-histone H3 (19-27)-MCA]	–	methylation often occurred	–
Ac-QTARK-MCA [Ac-histone H3 (5-9)-MCA]	–	methylation often occurred	–
